The assay deals with T1, Human TIM-3 Human Fc tagged protein (human, fluorescently labeled with HiLyte Fluor 555 (sites not given)).
T1 construct: Bought construct; also called TIM-3 protein tagged with human Fc; ACROBiosystems catalog no: TM3-H5258
The assay can be described thus: capture slide probed with labeled TIM-3-Fc.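 Also: IgG from single CD138-enriched plasma cells, isolated from lymphocytes, immobilized on a derivatized glass slide.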

B1: SCT-Fa023 (antibody, V domains shown)
VH: EVQLQQSGAELVKPGASVKLSCTASDFNIKDYYLHWVKQRTEQGLEWIGRIDPDDGETKYGPKFQGKATITADTSSNTAFLQLSSLTSEDTAVYFCSRSNPYYFDYWGQGTTLTVSS
VL: DIQMNQSPSSLSASLGDTITITCHVSQNINVWLSWYQQKPGNIPKLLIYKASNLHTGVTSRFSGSGAGTGFTLTISSLQPEDIATYYCQQGQNYPYTFGGGTKLEIK
notes: murine IgG
In the case of B1, the binding result is given as “binds”.

B2: SCT-Fa195 (antibody, V domains shown)
VH: QVQLRQSGAELVRPGTSVKLSCKASGYTLTDYYINWVKQRPGQGLEWIARIYPGNGNTYYNEKFKGKATLTAEKSSSTVNMQVSSLTSEDSAVYFCARGGSSDRIYYYAMDYWGQGTSVTVSS
VL: DIQVTQSSPFLSVSLGGRVIISCKASDHINNWLAWYQQKPGNAPRLLISGAINLETGVPSRFSGSGSGKDYTLSISSLQTEDVATYYCQQYWNTPYTFGGGTKLEIK
notes: murine IgG
Regarding B2, the binding result is listed as “binds”.

B3: SCT-Fa182 (antibody, V domains shown)
VH: QVQLQQSGAELVRPGTSVKVSCKASGYAFTNYLIEWVKQRPGQGLEWIGVISPGSGATTYNEKFKGKATLTADRSSTTAYMQLSSLTSEDSAVYFCARSAYGSPLDFWGQGTTLTVSS
VL: DIKMTQSPSSMYASLGERVTITCKASQDINRYLSWFQQKPGKSPKTLIYRVNRLVDGVPLRFSGSGSGQDYSLTISSLDYEDMGIYYCQQYDEFPYTFGGGTKLEIK
notes: murine IgG
As to B3, the binding result is “binds”.

B4: SCT-Fa183 (antibody, V domains shown)
VH: QVQLQQSGAELVRPGTSVKVSCKASGYAFTNYLIEWVKQRPGQGLEWIGVISPGSGATTYNEKFKGKATLTADRSSTTAYMQLSSLTSEDSAVYFCARSAYGSPLDFWGQGTTLTVSS
VL: DILLTQSPDILSVSPGERVSFSCRASQNIGTSIHWYQQRTNGSPRLLIKYASESISGISSRFSGSGSGTDFTLSINSVESEDIADYYCQQSNNWPFTFGSGTKLEIK
notes: murine IgG
For the molecule B4, the binding result was “binds”.

B5: SCT-Fa184 (antibody, V domains shown)
VH: QVQLQQSGAELVRPGTSVKVSCKASGYAFTNYLIEWVKQRPGQGLEWIGVISPGSGGTTYNEKFKGKATLTADKSSSTAYMQFSSLTSEDSAVYFCARSAYGHVFDYWGQGTTLTVSS
VL: DIKMTQSPSSIYASLGERVTITCKASQDINSYLKWFQQKPGKSPKTLIYRANRLVDGVPSRFSGSGSGQDYSLTISSLEYEDMGIYYCLQYDEFPYTFGGGTKLEIK
notes: murine IgG
On to B5, for which the binding result was “binds”.

B6: SCT-Fa185 (antibody, V domains shown)
VH: QVQLQQSGAELVRPGTSVRVSCTASGYAFTNYLIEWVKQRPGQGLEWIGVISPGSGGTTYNEKFKGKATLTADKSSSTAYMQFSSLTSEDSAVYFCARSAYGHVFDYWGQGTTLTVSS
VL: DIKMTQSPSSMYASLGERVTITCKASQDINSYLKWFQQKPGKSPKTLIYRANRLVDGVPSRFSGSGSGQDYSLTISSLEYEDMGIYYCLQYDEFPYTFGGGTKLEIK
notes: murine IgG
B6: the binding result is reported as “binds”.

B7: SCT-Fa008 (antibody, V domains shown)
VH: EVKLVESEGGLVQLGSSMKLSCTASGFTFSDYYMAWVRQVPEKGLEWIANINFDGSGTYYLDSLKSRFIISRDNGKNILYLQMSGLKSEDTATYYCARLYDGYYAYWGQGTTLTVSS
VL: DVVVTQTPLSLPVSLGDQASISCRSSQSLVHSNGNTYLYWYLQKPGQSPKLLIYKVSNRFSGVPDRFSGSGSGTDFTLKISRVEAEDLGVYFCSQSTHVPLTFGAGTKLELK
notes: murine IgG
B7: the binding result is reported as “binds”.

B8: SCT-Fa018 (antibody, V domains shown)
VH: EVKLVESEGGLVQPGSSMKLSCTASGFTFSDYYMAWVRQVPEKGLEWVANINFDGSSSYYLDSLKSRFIISRDNTKNILYLQMSSLKSEDTATYYCARLYDGYYAYWGQGTTLTVSS
VL: DVVMTQTPLSLPVSLGDQASISCRSSQSLIHSNGNTYLYWYLQKPGQSPTLLIYKVSNRFSGVPDRFSGSGSGTDFTLKISRVEAEDLGVYFCSQSTHVPLTFGAGSKLELK
notes: murine IgG
Regarding B8, the binding result is “binds”.

B9: SCT-Fa186 (antibody, V domains shown)
VH: QVQLQQSGPELARPGASVKLSCKASGYTFRSNGISWVKQRTGQGLEWIGEIYPRSGNIYYNEKVKDKATLTADKSSNTAYMAVRSLTSEDSAVYFCARSTTVVAGGFDFWGQGTVLTVSS
VL: DIVMTQSPSSLTVTAGEKVTMSCKSSQSLLNSRTQKNSLTWYQQKPGQPPKLLIYWASTRESGVPDRFTGSGSGTDFTLTISSVQAEDLAIYYCQNDYTYPWTFGGGTELEIK
notes: murine IgG
As to B9, the binding result is reported as “binds”.

B10: SCT-Fa193 (antibody, V domains shown)
VH: QVQLRQSGAELARPGASVKLSCKASGYTFTSYGITWVKQRTGQGLEWIGEIYPRSGNIYYNEKFKGKVTLTADKSSSTAYMELRSLTSEDSAVYFCARSTAVVAGGFDYWGQGTTLTVSS
VL: DVVMTQSPSSLTVTTGERVTVNCKSSQSLLNSRIQKNSLTWYQQKPGQPPKLLIYWASTRESGVPDRFTGSGSGTDFTLTISSVQAEDLAIYYCQNDYNYPWTFGGGTKLEIK
notes: murine IgG
For B10, the binding result was “binds”.

B11: SCT-Fa192 (antibody, V domains shown)
VH: QVQLRQSGAELARPGASVKLSCKASGYTFTNYGITWVKQRTGQGLEWIGEIYPRSGNIYYNEKFKGKVTLTADKSSSTAYMELRSLTSEDSAVYFCARSTAVVAGGFDYWGQGTTLTVSS
VL: DIVMTQSPSSLTVTTGEKVTVNCKSSQSLLNSRIQKNSLTWYQQKPGQPPKLLIFWASTRESGVPDRFTGSESGTDFTLTISSVQAEDLAIYYCQNDYNYPWTFGGGTKLEIK
notes: murine IgG
On to B11, for which the binding result is “binds”.

B12: SCT-Fa002 (antibody, V domains shown)
VH: EFQLQQSGPELVKPGASVKISCKASGYSFTDYNMNWVKQSNGKSLEWIGVNNPKYGTTTYNQKFKGKATLTVDQSSSTAYMQLNSLTSEDSAVYYCARRGYYYGSSYGYFDVWGTGTTVTVSS
VL: DILMTQSPSSMSVSLGDRVSIICHASQDIRSNIGWLQQKPGKSLKGLIYHGTNLEDGVPSRFSGSGSGADYSLTISSLESEDFADYYCVQYVQFPRTFGGGTKLEIK
notes: murine IgG
For the molecule B12, the binding result was “binds”.

B13: SCT-Fa022 (antibody, V domains shown)
VH: EVQLQQPGAELVKPGASVKLSCKASGYTFTSYWIHWVKQRPGRGLEWIGRIDPNSGGTKYNEKFKSKATLTVDKPSSTAYMQLSSLTSEDSAVYYCTKDGNTPYYAMDYWGQGTSVTVSS
VL: SIVMTQTPKFLLVSAGDRVTITCKASQSVSNAVAWYQQKPGQSPKLLIYYASNRYTGVPDRFTGSGYGTDFTFTISTVQAEDLAVYFCQQDYSSPLTFGAGTKLELK
notes: murine IgG
As for B13, the binding result is “binds”.

B14: SCT-Fa181 (antibody, V domains shown)
VH: QVQLQQSGAELVRPGTSVKVSCKASGYAFTNYLIEWVKQRPGQGLEWIGVINPGSGATNYNEKFKGKATLTADKSSSTAYMQLRSLASEDSAVYFCARRTTVVAPYAMDYWGQGTSVTVSS
VL: DIQMTQTTSSLSASLGDRVTISCRASQDISNYLNWYQQKPDGTVELLIYYTSRLHSGVPSRFSGSGSGTDYSLTISNLEQEDIATYFCQQGNTLPRTFGGGTKLEIK
notes: murine IgG
Take B14: the binding result is listed as “binds”.

B15: SCT-Fa020 (antibody, V domains shown)
VH: EVQLHQSGPELVKPGASVKMSCKASGYTFTDYNMHWVKQSHGKSLEWIGYINPNNGGIIYNQNFKGKATLTVNKSSTTAYMELRSLTSEDSAVYYCVGSLDYWGQGTTLTVSS
VL: DIQMTQTTSSLSASLGDRVTISCRASQDINNYLNWYQQKPDETVKLLIYYTSRLHSGVPSRFSGSGSGTDYSLTISNLDQEDFATYFCQQGYMLPLTFDAGTKLELK
notes: murine IgG
Turning to B15, the binding result was “binds”.

The values above are taken from patent publication US20230279105A1 (SINGLE CELL TECHNOLOGY, published 2023).
